35 sequences from the supplement of paper PMC12764529 can be followed below.

Series [1] can be described thus: folding stability dG unfold from chymotrypsin proteolysis; higher = more stable. Summed up:
(§1)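 Sequencing followed digestion of designed mini-proteins with trypsin and chymotrypsin, each at 11 concentrations in threefold dilutions together with a no-protease condition. The mini-proteins were under 80 residues, had no cysteine, sat in a PA-tagged cDNA display construct, and were kept only if AlphaFold2 dimer inter-PAE was above 15. From the counts, Bayesian fitting gave K50, and unfolding free energy was derived against a sequence-predicted unfolded-state K50 and a shared folded-state K50, per protease or combined.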

The nature of series [2]: folding stability dG unfold from trypsin proteolysis; higher = more stable. An outline of the steps: as §1
Series [3] can be described thus: folding stability dG unfold (combined trypsin and chymotrypsin); higher = more stable. Summed up:
as §1

± gives the half width of the 95% confidence interval.

For “SAGGMMEIEVEIEKLEDGTYRIRIRVRLPNGEEVEKEMTFDRETGTLTITFDRPIEPDQIVEIEIEPSAGGS [r16_95_TrROS_Hall]”, the “folding stability dG unfold” value was determined as 4.41 ± 0.2 kcal/mol in series [1], 3.94 ± 0.16 kcal/mol in series [2] and 4.27 ± 0.19 kcal/mol in series [3].
As to “SAGGMMKLNPKTLETKTTTVPLPDGSTVTLTTKLVELKFPNGEVELVTLTVETFPSEPTLTVLEEKPLSAGG [r19_158_JUSTAS]”, the “folding stability dG unfold” value was 0.45 ± 0.1 kcal/mol in series [1], -0.0226 ± 0.083 kcal/mol in series [2] and 0.341 ± 0.11 kcal/mol in series [3].
In the same order, the values of “SAGGMMTIEELKKLPPGAKVGDKIKIRNPATGETFTVTVLPDGRIKIEVDGKIYELPPGAEIVEIEKSAGGS [r8_162_TrROS_Hall]” are 2.36 ± 0.076 kcal/mol, 1.93 ± 0.086 kcal/mol and 2.17 ± 0.13 kcal/mol.
“SAGGMMTPVSEETLPDGSKVLVEENPATGERTVTTLNPATGTVTTETLKRVPGENAWTLLSKTTTPAPSAGG [r19_249_JUSTAS]”: the “folding stability dG unfold” value in series [1] came out at 1.83 ± 0.02 kcal/mol; in series [2] it was 2.033 ± 0.018 kcal/mol; in series [3] it was 1.94 ± 0.041 kcal/mol.
With “SAGGMMYLKLKVKNKNGEEIEVLIEFDEKTGKAYIYNKKTGKKIEMTLEELLKQENIEIEEIEPLPEPSAGG [r13_994_TrROS_Hall]”, the “folding stability dG unfold” value in series [1] came out at 4.29 ± 0.12 kcal/mol; in series [2], 2.89 ± 0.12 kcal/mol; in series [3], 4.07 ± 0.13 kcal/mol.
With “SAGGMNISIEPIGRDNDRWYYMITFPGDANEIKDFIEEFLPPGLPIKVKVLEVDPENGHVTVMIEIPRSAGG [r13_491_TrROS]”, the “folding stability dG unfold” value worked out at 3.58 ± 0.043 kcal/mol in series [1], 2.21 ± 0.042 kcal/mol in series [2] and 3.24 ± 0.058 kcal/mol in series [3].
Taken in the same sequence, the figures for “SAGGMPAKAVTTKLPDGTDRITVTTVGSGKSATIPVPAGELKVIEIEEGEETLSVSFVEVGPDNPELGSAGG [r13_122_TrMRF]” were 0.374 ± 0.014 kcal/mol, -0.426 ± 0.044 kcal/mol and 0.104 ± 0.056 kcal/mol.
As for “SAGGMPEGMVVLRIRVRVEKVEVRRDPAVPGRVSRRVEVREVEIELVVDSREALEALRELGFEIEEVSAGGS [r8_482_TrROS_Hall]”, the entries for the “folding stability dG unfold” value in series [1], in series [2] and in series [3] were 4.43 ± 0.11 kcal/mol, 3.79 ± 0.099 kcal/mol and 4.22 ± 0.08 kcal/mol, respectively.
For “SAGGMPEKVVVLRIRVTIRRDGEEEEIELEIRLPEEGQELTEEQLLALLRELLPPGYEIRRVEIEELSAGGS [r16_407_TrROS_Hall]”, the “folding stability dG unfold” value worked out at 4.755 ± 0.043 kcal/mol in series [1], 4.63 ± 0.077 kcal/mol in series [2] and 4.73 ± 0.048 kcal/mol in series [3].
With “SAGGMPEPRPIPLTLTLLVDPEDPESVEEKLREFFEAFGADEITRVERELLPDGRALVTAEVLVNEPVSAGG [r13_222_TrMRF]”, the “folding stability dG unfold” value was 1.17 ± 0.043 kcal/mol in series [1], 1.03 ± 0.03 kcal/mol in series [2] and 1.15 ± 0.061 kcal/mol in series [3].
Taken in the same sequence, the figures for “SAGGMPEVKIKVEITEIKVDKETGKTVTIRIKSVEITTADGRKYRVEKEIRIRPDGSIEVKVKVEELPSAGG [r13_917_TrROS_Hall]” were 4.21 ± 0.14 kcal/mol, 2.75 ± 0.089 kcal/mol and 3.75 ± 0.12 kcal/mol.
Taken in the same sequence, the figures for “SAGGMPIKSKKEAEEFIKKGGAKYLSKTKVKVKGEEKEKEFEVYEFVFKDPKTNKPILVVVPKEYIGSAGGS [r16_271_TrMRF]” were 1.27 ± 0.15 kcal/mol, -0.0462 ± 0.2 kcal/mol and 0.886 ± 0.23 kcal/mol.
Turning to “SAGGMPKIVEIEILSEEYDPSTGVRTYTAKVTYPDGTEEVVTIPVDLTDGNATEEEVKKRVEELVLESAGGS [r16_221_JUSTAS]”, the results for the “folding stability dG unfold” value in series [1], in series [2] and in series [3] were 3.66 ± 0.11 kcal/mol, 3.95 ± 0.22 kcal/mol and 3.76 ± 0.13 kcal/mol, respectively.
With “SAGGMPKPVTLPAVIELGAGPAIAVEEFPETGKLVFVFPPTHRIFVFDPNGKLVAEVDVPPDVPVSAVSAGG [r13_507_TrMRF]”, the “folding stability dG unfold” value in series [1] is 0.973 ± 0.31 kcal/mol; in series [2], 0.901 ± 0.053 kcal/mol; in series [3], 0.931 ± 0.15 kcal/mol.
In the same order, the values of “SAGGMPKTITVERTLDVDPAVLASTTPEELVARVVEELRAEGVPISSVDPQTITRGATTVTVRVTLLESAGG [r13_432_JUSTAS]” are 2.322 ± 0.023 kcal/mol, 1.662 ± 0.014 kcal/mol and 2.08 ± 0.029 kcal/mol.
Turning to “SAGGMPPDARKLIREIAQDFGMSDIEPDEEGHVRINMPNPMMIQVDVENGEPKIKIYNNNKWREIPISAGGS [r16_296_TrROS]”, the “folding stability dG unfold” value came out at 0.411 ± 0.31 kcal/mol in series [1], 0.355 ± 0.079 kcal/mol in series [2] and 0.437 ± 0.13 kcal/mol in series [3].
Turning to “SAGGMPPGQVVRLRLERVSPTWVRLYFPETGEVLYFPVRPDATLAEAEAIARELAERLGYPVEIETVSAGGS [r16_446_TrMRF]”, the figures for the “folding stability dG unfold” value in series [1], in series [2] and in series [3] were 3.779 ± 0.014 kcal/mol, 3.76 ± 0.077 kcal/mol and 3.8 ± 0.07 kcal/mol, respectively.
In the same order, the values of “SAGGMPPVVLEYEIDIKPDPNETLEDVLEKAEEFVEELKEAFPELDLKEVKVEVDPEKGKVKITVVFPSAGG [r13_1011_TrMRF]” are 1.95 ± 0.14 kcal/mol, 1.77 ± 0.11 kcal/mol and 1.92 ± 0.12 kcal/mol.
Taken in the same sequence, the figures for “SAGGMPREVAKEMIENDKDAKVTFTIYRFPDGPVPSVTVEVIEADVKDPDAFLESVPEGWLVLVEPASAGGS [r16_116_TrMRF]” were 1.17 ± 0.11 kcal/mol, 0.245 ± 0.13 kcal/mol and 0.769 ± 0.085 kcal/mol.
As to “SAGGMPVPVTFPFAGADEVIAFATALEELVNAPVGLTLISPSGEEREVGDPDSIVDEDGFTVRVTVPASAGG [r13_620_TrMRF]”, the “folding stability dG unfold” value was -0.382 ± 0.16 kcal/mol in series [1], 1.38 ± 0.015 kcal/mol in series [2] and 0.921 ± 0.039 kcal/mol in series [3].
“SAGGMPVTLEIVLPNLHDVLGPEFFDALKNITVPNGTPIKKITVKPIGDKTVILIEVDSPEDAKDILGSAGG [r13_269_TrMRF]”: the “folding stability dG unfold” value in series [1] is 1.66 ± 0.17 kcal/mol; in series [2] it was 1.44 ± 0.12 kcal/mol; in series [3] it was 1.58 ± 0.15 kcal/mol.
With “SAGGMPVTTTPRTVELPDRRVEVIDRTFPNGPPRTTVVVRDPAGNLVATREFTGPEWEEWLRAEGALLSAGG [r19_90_JUSTAS]”, the entries for the “folding stability dG unfold” value in series [1], in series [2] and in series [3] were 1.06 ± 0.035 kcal/mol, -0.606 ± 0.17 kcal/mol and 0.707 ± 0.048 kcal/mol, respectively.
With “SAGGMRIRIVVPPEMSPEEIAELLKKLFPDYEIKVEVKTVKVKVKDEETGEEYEVEVLVVEIEIKEKSAGGS [r16_828_TrROS_Hall]”, the “folding stability dG unfold” value came to 3.78 ± 0.12 kcal/mol in series [1], 3.61 ± 0.18 kcal/mol in series [2] and 3.74 ± 0.14 kcal/mol in series [3].
Take “SAGGMRIYIPPELPEEKVEEIREEAEEEFPVEVTLERFPEPGYVVLEFEGEEEELYRRIEEKIREKGSAGGS [r16_227_TrMRF]”: the “folding stability dG unfold” value in series [1] stood at 1.42 ± 0.35 kcal/mol; in series [2], 1.17 ± 0.16 kcal/mol; in series [3], 1.55 ± 0.41 kcal/mol.
Turning to “SAGGMRPMVVTVRYPDGSVQTLVADYDPDTDVIRFPFPSDGTERDIPAGEWREDPDYQVLSETPLSLESAGG [r13_994_JUSTAS]”, the “folding stability dG unfold” value in series [1] is 0.0211 ± 0.11 kcal/mol; in series [2], 1.58 ± 0.045 kcal/mol; in series [3], 0.967 ± 0.052 kcal/mol.
In the same order, the values of “SAGGMSALRIVAENLPEDARVVLPDGRVFPPGVELELPLEADLDVVVALDEDGRVHHVERVPLDRPLLSAGG [r13_441_TrMRF]” are -0.501 ± 0.21 kcal/mol, -0.352 ± 0.16 kcal/mol and -0.389 ± 0.099 kcal/mol.
In the same order, the values of “SAGGMSEEVRKLAEELAKKLNIEKVEVLPDGTVRITLKNGKKIEIKVEKVEVKEVKVEVEVEEVEEESAGGS [r16_296_TrROS_Hall]” are 4.11 ± 0.28 kcal/mol, 2.55 ± 0.27 kcal/mol and 3.62 ± 0.49 kcal/mol.
Taken in the same sequence, the figures for “SAGGMSVSITVTVTPTEVRVVENPTNGVNTAFTETTVTVTVNHPSSVSPEEKAALIAAVKAANPGAASAGGS [r8_306_JUSTAS]” were 1.92 ± 0.57 kcal/mol, 2.86 ± 0.57 kcal/mol and 2.43 ± 0.49 kcal/mol.
On to “SAGGMTAEEIAEALRERLRELFPPGAEIEVDEIEVEEVEVEEEPVELSEEERERVEKMPEEERERLLSAGGS [r16_272_TrROS_Hall]”, for which the “folding stability dG unfold” value in series [1] is -0.0968 ± 0.18 kcal/mol; in series [2], 1.27 ± 0.22 kcal/mol; in series [3], 0.635 ± 0.33 kcal/mol.
In the same order, the values of “SAGGMTASSTTLPPSGITSQTTTDPATGVTTTTTRYPDGTVTTTTTTALPPPAAATTTTTTALPGSAAASAG [r5_766_JUSTAS]” are 1.68 ± 0.07 kcal/mol, 1.93 ± 0.12 kcal/mol and 1.77 ± 0.086 kcal/mol.
In the same order, the values of “SAGGMTETITGEFDDEEEAIAYAKKIVKEKYPNKNVTMEIETTYDPKTGKYKVTATITIPDEGEEHHSAGGS [r8_17_JUSTAS]” are 5.61 ± 0.18 kcal/mol, 4.72 ± 0.35 kcal/mol and 5.94 ± 0.37 kcal/mol.
Consider “SAGGMTFSGVTREQALAIAKALEEEGYVLERVEVVEFPEDGTVRALVVVRDPETDEPLAEIELDIKPSAGGS [r16_750_TrMRF]”, for which the figures for the “folding stability dG unfold” value in series [1], in series [2] and in series [3] were 1.81 ± 0.036 kcal/mol, 1.53 ± 0.017 kcal/mol and 1.7 ± 0.055 kcal/mol, respectively.
In the same order, the values of “SAGGMTIEKEDGKYRITITINGKTYTFTIPKELENKTEEEIAAELAAELAEKFGLKEITEIKIEKVPSAGGS [r8_402_TrROS_Hall]” are 3.559 ± 0.025 kcal/mol, 2.38 ± 0.096 kcal/mol and 3.14 ± 0.1 kcal/mol.
Turning to “SAGGMTIELTIVAETEEEAEKAAEELARKLAELYPDLKVKVTVEKVEVKDEETGKTYLVYKVRIEIEPSAGG [r13_545_TrROS_Hall]”, the “folding stability dG unfold” value in series [1] is 4.96 ± 0.11 kcal/mol; in series [2] it was 4.47 ± 0.19 kcal/mol; in series [3], 4.95 ± 0.11 kcal/mol.
In the same order, the values of “SAGGMTILFEADSLEEARQAVEDLLRDLGIPAIAERITVEERTFRLPAGPGTRRFVLVTIDLRLEPPSAGGS [r16_587_TrMRF]” are 2.522 ± 0.021 kcal/mol, 2.68 ± 0.031 kcal/mol and 2.62 ± 0.034 kcal/mol.
